Measurements: PMC2709577
Where two headings read alike, the source gives them in different places.

Tests used:
Experiment in all cases: nanopore rupture with qPCR
[1] = biological target: T1, EcoRI restriction endonuclease (UniProt P00642 1-277)
[2] = biological target: T1, EcoRI restriction endonuclease; remark: listed apart in the source
[3] = biological target: T1, EcoRI restriction endonuclease; remark: listed apart in the source

T1 sequence (P00642 whole entry): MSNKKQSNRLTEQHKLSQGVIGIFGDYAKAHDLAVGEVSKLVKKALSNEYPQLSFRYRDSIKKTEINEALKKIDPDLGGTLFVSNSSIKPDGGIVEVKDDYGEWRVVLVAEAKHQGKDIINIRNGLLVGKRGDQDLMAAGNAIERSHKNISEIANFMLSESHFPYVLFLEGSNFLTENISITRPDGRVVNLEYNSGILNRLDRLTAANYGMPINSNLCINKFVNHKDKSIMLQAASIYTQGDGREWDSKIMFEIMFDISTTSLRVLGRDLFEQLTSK

B1: 105 bp cognate TGAATTC (dsDNA)
DNA 1: TAAGTTGGGTAACGCCAGGGTTTTCCCAGTCACGACGTTGTAAAACGACGGCCAGTGAATTCGAGCTCGGTACCCGGGGATCCTCTAGAGTCGACCTGCAGGCAT
DNA 2: ATGCCTGCAGGTCGACTCTAGAGGATCCCCGGGTACCGAGCTCGAATTCACTGGCCGTCGTTTTACAACGTCGTGACTGGGAAAACCCTGGCGTTACCCAACTTA
**Q.** With B1 as the binder, how does the binding signal [1] read?
**A.** 2.08 ± 0.03 V (threshold voltage)

**Q.** And the binding signal [2]?
**A.** 2.16 ± 0.08 V (threshold voltage)

**Q.** What about the binding signal [3] of the same binder?
**A.** 2.09 ± 0.06 V (threshold voltage)

B2: 105 bp AGAATTC (5' flank T to A) (dsDNA)
DNA 1: TAAGTTGGGTAACGCCAGGGTTTTCCCAGTCACGACGTTGTAAAACGACGGCCAGAGAATTCGAGCTCGGTACCCGGGGATCCTCTAGAGTCGACCTGCAGGCAT
DNA 2: ATGCCTGCAGGTCGACTCTAGAGGATCCCCGGGTACCGAGCTCGAATTCTCTGGCCGTCGTTTTACAACGTCGTGACTGGGAAAACCCTGGCGTTACCCAACTTA
**Q.** How did the binding signal [1] turn out when B2 was run?
**A.** 1.72 ± 0.05 V (threshold voltage)

**Q.** What about the binding signal [2] of the same binder?
**A.** 1.62 ± 0.07 V (threshold voltage)

**Q.** What about the binding signal [3] of the same binder?
**A.** 1.84 ± 0.05 V (threshold voltage)

B3: 105 bp TGCATTC (second base A to C) (dsDNA)
DNA 1: TAAGTTGGGTAACGCCAGGGTTTTCCCAGTCACGACGTTGTAAAACGACGGCCAGTGCATTCGAGCTCGGTACCCGGGGATCCTCTAGAGTCGACCTGCAGGCAT
DNA 2: ATGCCTGCAGGTCGACTCTAGAGGATCCCCGGGTACCGAGCTCGAATGCACTGGCCGTCGTTTTACAACGTCGTGACTGGGAAAACCCTGGCGTTACCCAACTTA
**Q.** With B3 as the binder, how does the binding signal [1] read?
**A.** 0.93 ± 0.05 V (threshold voltage)

**Q.** And the binding signal [2]?
**A.** 0.87 ± 0.06 V (threshold voltage)

**Q.** What about the binding signal [3] of the same binder?
**A.** 0.93 ± 0.06 V (threshold voltage)

B4: 105 bp TGACTTC (third base A to C) (dsDNA)
DNA 1: TAAGTTGGGTAACGCCAGGGTTTTCCCAGTCACGACGTTGTAAAACGACGGCCAGTGACTTCGAGCTCGGTACCCGGGGATCCTCTAGAGTCGACCTGCAGGCAT
DNA 2: ATGCCTGCAGGTCGACTCTAGAGGATCCCCGGGTACCGAGCTCGAAGTCACTGGCCGTCGTTTTACAACGTCGTGACTGGGAAAACCCTGGCGTTACCCAACTTA
**Q.** Which results are given for B4?
**A.** binding signal [1]: 1.08 ± 0.04 V (threshold voltage); binding signal [2]: 1.11 ± 0.08 V (threshold voltage); binding signal [3]: 1.02 ± 0.08 V (threshold voltage)

B5: 105 bp TTAATTC (first base G to T) (dsDNA)
DNA 1: TAAGTTGGGTAACGCCAGGGTTTTCCCAGTCACGACGTTGTAAAACGACGGCCAGTTAATTCGAGCTCGGTACCCGGGGATCCTCTAGAGTCGACCTGCAGGCAT
DNA 2: ATGCCTGCAGGTCGACTCTAGAGGATCCCCGGGTACCGAGCTCGAATTAACTGGCCGTCGTTTTACAACGTCGTGACTGGGAAAACCCTGGCGTTACCCAACTTA
**Q.** For B5, which binding signal [1] is on record?
**A.** 1.18 ± 0.06 V (threshold voltage)

**Q.** What about the binding signal [2] of the same binder?
**A.** 1.17 ± 0.09 V (threshold voltage)

**Q.** What about the binding signal [3] of the same binder?
**A.** 1.16 ± 0.03 V (threshold voltage)
